From article PMC12033333 (Nature Communications, 2025)

T1: GST-PIF3 (Arabidopsis thaliana, UniProt O80536 1-524)
T1 sequence: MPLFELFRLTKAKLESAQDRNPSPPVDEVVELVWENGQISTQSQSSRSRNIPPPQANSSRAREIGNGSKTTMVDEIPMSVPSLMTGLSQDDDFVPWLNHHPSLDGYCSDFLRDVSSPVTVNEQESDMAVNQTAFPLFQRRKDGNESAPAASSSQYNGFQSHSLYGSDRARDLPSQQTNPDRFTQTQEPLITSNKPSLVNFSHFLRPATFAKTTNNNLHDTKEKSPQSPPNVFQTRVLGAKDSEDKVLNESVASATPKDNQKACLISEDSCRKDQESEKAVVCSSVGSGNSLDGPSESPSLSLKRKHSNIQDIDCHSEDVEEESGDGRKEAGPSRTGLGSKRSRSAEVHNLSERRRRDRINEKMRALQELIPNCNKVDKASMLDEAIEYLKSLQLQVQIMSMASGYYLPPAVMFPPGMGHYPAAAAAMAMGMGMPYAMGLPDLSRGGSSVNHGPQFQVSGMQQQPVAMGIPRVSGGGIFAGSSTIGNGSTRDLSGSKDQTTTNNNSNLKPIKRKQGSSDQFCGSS

T2: SBP-fused phyA^PSM (Arabidopsis thaliana, UniProt P14712 1-615, chromophore-bound (phycocyanobilin, PCB))
T2 sequence: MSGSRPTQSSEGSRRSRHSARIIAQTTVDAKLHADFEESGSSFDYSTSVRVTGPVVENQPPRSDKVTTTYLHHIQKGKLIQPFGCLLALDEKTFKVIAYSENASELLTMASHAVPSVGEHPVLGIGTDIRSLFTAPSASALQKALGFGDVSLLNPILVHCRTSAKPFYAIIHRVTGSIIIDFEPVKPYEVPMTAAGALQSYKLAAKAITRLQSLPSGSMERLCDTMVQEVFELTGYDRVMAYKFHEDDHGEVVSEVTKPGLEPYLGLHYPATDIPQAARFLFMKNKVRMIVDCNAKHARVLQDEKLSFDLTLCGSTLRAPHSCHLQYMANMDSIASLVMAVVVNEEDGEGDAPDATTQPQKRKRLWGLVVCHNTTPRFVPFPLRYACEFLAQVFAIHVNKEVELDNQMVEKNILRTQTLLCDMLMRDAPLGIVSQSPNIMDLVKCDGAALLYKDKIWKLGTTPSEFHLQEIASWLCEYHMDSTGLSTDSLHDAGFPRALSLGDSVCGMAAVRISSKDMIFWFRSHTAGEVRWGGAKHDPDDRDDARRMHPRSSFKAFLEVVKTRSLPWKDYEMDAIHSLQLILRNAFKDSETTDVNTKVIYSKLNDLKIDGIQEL

T3: MBP-fused phyB^OPM (Arabidopsis thaliana, UniProt P14713 642-1172)
T3 sequence: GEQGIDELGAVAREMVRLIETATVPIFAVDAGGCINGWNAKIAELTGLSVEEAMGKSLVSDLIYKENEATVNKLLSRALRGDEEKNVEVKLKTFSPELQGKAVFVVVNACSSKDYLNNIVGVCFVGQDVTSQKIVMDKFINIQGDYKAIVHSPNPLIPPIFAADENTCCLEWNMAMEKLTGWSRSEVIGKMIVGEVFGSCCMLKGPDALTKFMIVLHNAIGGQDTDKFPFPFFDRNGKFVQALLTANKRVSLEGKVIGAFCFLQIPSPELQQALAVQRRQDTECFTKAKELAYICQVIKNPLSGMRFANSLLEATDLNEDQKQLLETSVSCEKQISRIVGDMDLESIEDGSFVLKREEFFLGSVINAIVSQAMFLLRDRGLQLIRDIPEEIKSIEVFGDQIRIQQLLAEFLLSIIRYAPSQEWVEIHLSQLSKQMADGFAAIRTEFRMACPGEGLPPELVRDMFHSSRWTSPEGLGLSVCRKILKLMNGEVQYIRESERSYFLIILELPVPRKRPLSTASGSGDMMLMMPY

B1: MBP-fused phyA^OPM (domain or fragment)
chain: KIDGIQELEAVTSEMVRLIETATVPILAVDSDGLVNGWNTKIAELTGLSVDEAIGKHFLTLVEDSSVEIVKRMLENALEGTEEQNVQFEIKTHLSRADAGPISLVVNACASRDLHENVVGVCFVAHDLTGQKTVMDKFTRIEGDYKAIIQNPNPLIPPIFGTDEFGWCTEWNPAMSKLTGLKREEVIDKMLLGEVFGTQKSCCRLKNQEAFVNLGIVLNNAVTSQDPEKVSFAFFTRGGKYVECLLCVSKKLDREGVVTGVFCFLQLASHELQQALHVQRLAERTAVKRLKALAYIKRQIRNPLSGIMFTRKMIEGTELGPEQRRILQTSALCQKQLSKILDDSDLESIIEGCLDLEMKEFTLNEVLTASTSQVMMKSNGKSVRITNETGEEVMSDTLYGDSIRLQQVLADFMLMAVNFTPSGGQLTVSASLRKDQLGRSVHLANLEIRLTHTGAGIPEFLLNQMFGTEEDVSEEGLSLMVSRKLVKLMNGDVQYLRQAGKSSFIITAELAAANK
B2: GST-fused APA (PIF3 86-221 a.a.) (domain or fragment)
chain: GLSQDDDFVPWLNHHPSLDGYCSDFLRDVSSPVTVNEQESDMAVNQTAFPLFQRRKDGNESAPAASSSQYNGFQSHSLYGSDRARDLPSQQTNPDRFTQTQEPLITSNKPSLVNFSHFLRPATFAKTTNNNLHDTK

Key:
Assay in all cases: pull-down
[1] = target: T1, GST-PIF3
[2] = target: T2, SBP-fused phyA^PSM
[3] = target: T3, MBP-fused phyB^OPM
[4] = target: B1

Binder	binding result [1]	binding result [2]	binding result [3]	binding result [4]
B1	binds	binds		
B2			binds	binds
